Experiments:
[1] = biological target: T1, human FAPα (Fibroblast activation protein alpha), cell surface expressed (human, UniProt Q12884 1-760); test: flow cytometry, Expi293F cells expressing human FAPα, n = 2
T1 construct: Endogenous on human lung fibroblasts and CAFs
T1 sequence: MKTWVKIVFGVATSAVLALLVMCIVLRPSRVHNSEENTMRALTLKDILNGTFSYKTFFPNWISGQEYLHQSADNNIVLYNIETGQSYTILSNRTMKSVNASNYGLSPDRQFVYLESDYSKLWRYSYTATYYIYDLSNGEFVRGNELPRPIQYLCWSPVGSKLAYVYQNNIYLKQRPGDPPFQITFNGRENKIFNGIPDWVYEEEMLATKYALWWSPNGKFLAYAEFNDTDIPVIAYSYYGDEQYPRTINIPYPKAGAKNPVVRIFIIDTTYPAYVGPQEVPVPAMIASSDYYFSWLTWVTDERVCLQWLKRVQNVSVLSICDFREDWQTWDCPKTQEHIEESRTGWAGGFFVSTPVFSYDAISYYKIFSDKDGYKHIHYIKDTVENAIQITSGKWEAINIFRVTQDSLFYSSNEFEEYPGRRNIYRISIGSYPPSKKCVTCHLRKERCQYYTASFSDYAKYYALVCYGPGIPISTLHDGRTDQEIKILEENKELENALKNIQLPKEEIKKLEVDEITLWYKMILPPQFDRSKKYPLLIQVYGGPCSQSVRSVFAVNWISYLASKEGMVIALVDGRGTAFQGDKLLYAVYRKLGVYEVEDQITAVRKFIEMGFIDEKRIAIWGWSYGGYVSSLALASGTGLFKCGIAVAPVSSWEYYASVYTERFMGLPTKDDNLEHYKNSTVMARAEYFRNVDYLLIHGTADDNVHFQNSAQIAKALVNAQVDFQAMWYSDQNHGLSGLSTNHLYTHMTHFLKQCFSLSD
Description: (§1) Binding of BisG1-FAPα-FERL/DR4-FERR, BisG1-FAPα-FEAL/b12-FEAR and IgG1-FAPα-FERL to FAPα of species commonly used for nonclinical toxicology studies was assessed by flow cytometry using Expi293F cells transiently expressing FAPα from different animal species. IgG1-b12 was included as negative control.
(§2) Expi293F cells expressing recombinant FAPα from various species (human, cynomolgus monkey, dog, pig, rat or mouse) were seeded (20,000 cells/well) in 96-Well round bottom plates (Greiner Bio-one, Cat #650101). Antibody dilutions were prepared using FACS buffer, consisting of PBS (Capricorn Scientific, Cat #PBS-10XA, diluted to 1×PBS in distilled water)+1% BSA (Roche, Cat #10735086001)+0.02% Sodium Azide (Bio-World, Cat #41920044-3). Plates were centrifuged, supernatant was removed, and cells were resuspended in 100 μL of antibody dilutions (concentration range 30-0.00017 μg/mL with three-fold serial dilutions using FACS buffer) of BisG1-FAPα-FERL/DR4-FERR, BisG1-FAPα-FEAL/b12-FEAR, IgG1-FAPα-FERL and IgG1-b12 and incubated for 30 min at 4° C. […] After 30 min incubation at 4° C., cells were washed with FACS buffer and resuspended in FACS buffer supplemented with TO-PRO-3 Iodide viability marker (Invitrogen, Cat #T3605, diluted 1:4,000). Antibody binding to viable cells (gMFI of PE on TO-PRO-3 negative cells) was analyzed by flow cytometry on a FACS Celesta and FACS_Diva software (first two experiments) or iQue® 3 and FlowJo software (last experiment). gMFI was determined and visualized using GraphPad Prism. Binding curves were analyzed using nonlinear regression analysis. The concentration (pg/mL) at which 50% of the maximal effect was observed (EC₅₀) was derived from the fitted curves.

[2] = biological target: T2, pig FAPα on Expi293F cells (pig (Sus scrofa), UniProt A5D7B7 1-760 (bovine entry)); test: flow cytometry on Expi293F cells transiently expressing pig FAPα, gMFI PE
T2 chain: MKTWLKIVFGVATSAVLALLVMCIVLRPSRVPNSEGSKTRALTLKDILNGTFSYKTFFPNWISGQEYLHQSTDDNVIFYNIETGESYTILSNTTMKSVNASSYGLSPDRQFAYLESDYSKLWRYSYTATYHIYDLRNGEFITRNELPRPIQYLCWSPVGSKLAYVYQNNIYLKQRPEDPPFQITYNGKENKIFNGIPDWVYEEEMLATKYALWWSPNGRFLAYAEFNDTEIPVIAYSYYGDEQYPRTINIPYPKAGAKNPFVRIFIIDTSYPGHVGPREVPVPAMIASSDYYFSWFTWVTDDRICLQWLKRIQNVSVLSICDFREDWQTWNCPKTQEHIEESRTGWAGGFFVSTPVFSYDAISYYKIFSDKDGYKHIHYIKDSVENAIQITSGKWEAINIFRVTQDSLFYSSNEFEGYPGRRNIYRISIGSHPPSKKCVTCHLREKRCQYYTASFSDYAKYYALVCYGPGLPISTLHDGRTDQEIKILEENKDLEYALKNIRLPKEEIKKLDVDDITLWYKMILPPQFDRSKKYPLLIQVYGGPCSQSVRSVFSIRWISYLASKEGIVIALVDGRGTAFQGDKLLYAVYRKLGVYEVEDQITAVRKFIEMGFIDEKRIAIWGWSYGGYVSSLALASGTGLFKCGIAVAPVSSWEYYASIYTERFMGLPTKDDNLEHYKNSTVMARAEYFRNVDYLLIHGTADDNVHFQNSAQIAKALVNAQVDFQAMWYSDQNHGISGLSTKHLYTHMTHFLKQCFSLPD
Description: as §1, §2

B1: BisG1-FAPα-FERL/DR4-FERR (bispecific antibody, human IgG1, kappa, lambda)
heavy 1: EVQLLESGGGLVQPGGSPRLSCEASGFTFSSYALSWVRQAPGKGLEWVSAISGSGGGRYYADSVKGRFTISRDNSKNTLFLQMNSLRAEDTAVYYCAKEGYSSSGTYWDHWGQGTLVTVSSASTKGPSVFPLAPSSKSTSGGTAALGCLVKDYFPEPVTVSWNSGALTSGVHTFPAVLQSSGLYSLSSVVTVPSSSLGTQTYICNVNHKPSNTKVDKRVEPKSCDKTHTCPPCPAPEFERGPSVFLFPPKPKDTLMISRTPEVTCVVVDVSHEDPEVKFNWYVDGVEVHNAKTKPREEQYNSTYRVVSVLTVLHQDWLNGKEYKCKVSNKALPAPIEKTISKAKGQPREPQVYTLPPSREEMTKNQVSLTCLVKGFYPSDIAVEWESNGQPENNYKTTPPVLDSDGSFLLYSKLTVDKSRWQQGNVFSCSVMHEALHNHYTQKSLSLSPG
light 1: AIQMTQSPSSVSASVGDRVTITCRASQGVSSWLAWYQQKPGRAPKLLIYVASTLQSGVPSRFSGSGSGTDFTLTINSLQPEDFATYYCQQANSFPPTFGQGTRLEMKRTVAAPSVFIFPPSDEQLKSGTASVVCLLNNFYPREAKVQWKVDNALQSGNSQESVTEQDSKDSTYSLSSTLTLSKADYEKHKVYACEVTHQGLSSPVTKSFNRGEC
heavy 2: QVQLQESGPGLVKPSGTLSLTCAVSGGSISSYSWWSWIRQPPGKGLEWIGELYHSGSTNYNPSLKSRVTISVDKSKNQFSLKLRSVTAADTAVYYCVRGVATIDYWGQGTLVTVSSASTKGPSVFPLAPSSKSTSGGTAALGCLVKDYFPEPVTVSWNSGALTSGVHTFPAVLQSSGLYSLSSVVTVPSSSLGTQTYICNVNHKPSNTKVDKRVEPKSCDKTHTCPPCPAPEFERGPSVFLFPPKPKDTLMISRTPEVTCVVVDVSHEDPEVKFNWYVDGVEVHNAKTKPREEQYNSTYRVVSVLTVLHQDWLNGKEYKCKVSNKALPAPIEKTISKAKGQPREPQVYTLPPSREEMTKNQVSLTCLVKGFYPSDIAVEWESNGQPENNYKTTPPVLDSDGSFFLYSRLTVDKSRWQQGNVFSCSVMHEALHNHYTQKSLSLSPG
light 2: QSALTQPPSASGSPGQSVTISCTGTSSDVGGYNFVSWYQQDPGKAPKLLIYEVTKRPSGVPDRFSGSKSGNTASLTVSGLQAEDEADYYCSSYAGSNNVMFGGGTKLTVLGQPKAAPSVTLFPPSSEELQANKATLVCLISDFYPGAVTVAWKADSSPVKAGVETTTPSKQSNNKYAASSYLSLTPEQWKSHRSYSCQVTHEGSTVEKTVAPTECS
notes: Human IgG1 bispecific made by controlled Fab-arm exchange of IgG1-FAPα-FERL and IgG1-DR4-FERR; monovalent for FAPα and for DR4; also called GEN1057
In the case of B1, the EC50 [1] is reported as 0.32 µg/mL and the binding result [2] is reported as “binds”.

B2: IgG1-FAPα-FERL (antibody)
heavy: EVQLLESGGGLVQPGGSPRLSCEASGFTFSSYALSWVRQAPGKGLEWVSAISGSGGGRYYADSVKGRFTISRDNSKNTLFLQMNSLRAEDTAVYYCAKEGYSSSGTYWDHWGQGTLVTVSSASTKGPSVFPLAPSSKSTSGGTAALGCLVKDYFPEPVTVSWNSGALTSGVHTFPAVLQSSGLYSLSSVVTVPSSSLGTQTYICNVNHKPSNTKVDKRVEPKSCDKTHTCPPCPAPEFERGPSVFLFPPKPKDTLMISRTPEVTCVVVDVSHEDPEVKFNWYVDGVEVHNAKTKPREEQYNSTYRVVSVLTVLHQDWLNGKEYKCKVSNKALPAPIEKTISKAKGQPREPQVYTLPPSREEMTKNQVSLTCLVKGFYPSDIAVEWESNGQPENNYKTTPPVLDSDGSFLLYSKLTVDKSRWQQGNVFSCSVMHEALHNHYTQKSLSLSPG
light: AIQMTQSPSSVSASVGDRVTITCRASQGVSSWLAWYQQKPGRAPKLLIYVASTLQSGVPSRFSGSGSGTDFTLTINSLQPEDFATYYCQQANSFPPTFGQGTRLEMKRTVAAPSVFIFPPSDEQLKSGTASVVCLLNNFYPREAKVQWKVDNALQSGNSQESVTEQDSKDSTYSLSSTLTLSKADYEKHKVYACEVTHQGLSSPVTKSFNRGEC
notes: Bivalent monoclonal IgG1 kappa
In the case of B2, the EC50 [1] is reported as 0.12 µg/mL and the “EC50 (read off the curve)” value [2] is reported as ~0.3 µg/mL.

B3: BisG1-FAPα-FEAL/b12-FEAR (bispecific antibody, human IgG1, kappa)
heavy 1: EVQLLESGGGLVQPGGSPRLSCEASGFTFSSYALSWVRQAPGKGLEWVSAISGSGGGRYYADSVKGRFTISRDNSKNTLFLQMNSLRAEDTAVYYCAKEGYSSSGTYWDHWGQGTLVTVSSASTKGPSVFPLAPSSKSTSGGTAALGCLVKDYFPEPVTVSWNSGALTSGVHTFPAVLQSSGLYSLSSVVTVPSSSLGTQTYICNVNHKPSNTKVDKRVEPKSCDKTHTCPPCPAPEFEGGPSVFLFPPKPKDTLMISRTPEVTCVVVAVSHEDPEVKFNWYVDGVEVHNAKTKPREEQYNSTYRVVSVLTVLHQDWLNGKEYKCKVSNKALPAPIEKTISKAKGQPREPQVYTLPPSREEMTKNQVSLTCLVKGFYPSDIAVEWESNGQPENNYKTTPPVLDSDGSFLLYSKLTVDKSRWQQGNVFSCSVMHEALHNHYTQKSLSLSPG
light 1: AIQMTQSPSSVSASVGDRVTITCRASQGVSSWLAWYQQKPGRAPKLLIYVASTLQSGVPSRFSGSGSGTDFTLTINSLQPEDFATYYCQQANSFPPTFGQGTRLEMKRTVAAPSVFIFPPSDEQLKSGTASVVCLLNNFYPREAKVQWKVDNALQSGNSQESVTEQDSKDSTYSLSSTLTLSKADYEKHKVYACEVTHQGLSSPVTKSFNRGEC
heavy 2: QVQLVQSGAEVKKPGASVKVSCQASGYRFSNFVIHWVRQAPGQRFEWMGWINPYNGNKEFSAKFQDRVTFTADTSANTAYMELRSLRSADTAVYYCARVGPYSWDDSPQDNYYMDVWGKGTTVIVSSASTKGPSVFPLAPSSKSTSGGTAALGCLVKDYFPEPVTVSWNSGALTSGVHTFPAVLQSSGLYSLSSVVTVPSSSLGTQTYICNVNHKPSNTKVDKRVEPKSCDKTHTCPPCPAPEFEGGPSVFLFPPKPKDTLMISRTPEVTCVVVAVSHEDPEVKFNWYVDGVEVHNAKTKPREEQYNSTYRVVSVLTVLHQDWLNGKEYKCKVSNKALPAPIEKTISKAKGQPREPQVYTLPPSREEMTKNQVSLTCLVKGFYPSDIAVEWESNGQPENNYKTTPPVLDSDGSFFLYSRLTVDKSRWQQGNVFSCSVMHEALHNHYTQKSLSLSPG
light 2: EIVLTQSPGTLSLSPGERATFSCRSSHSIRSRRVAWYQHKPGQAPRLVIHGVSNRASGISDRFSGSGSGTDFTLTITRVEPEDFALYYCQVYGASSYTFGQGTKLERKRTVAAPSVFIFPPSDEQLKSGTASVVCLLNNFYPREAKVQWKVDNALQSGNSQESVTEQDSKDSTYSLSSTLTLSKADYEKHKVYACEVTHQGLSSPVTKSFNRGEC
notes: Fab-arm exchange of IgG1-FAPα-FEAL and IgG1-b12-FEAR
With B3 the EC50 [1] was 0.16 µg/mL and the binding result [2] was “binds”.

From US20250002610A1 (Genmab, published 2025)
